Columns and labels:
[1] = target: T1, Human P-cadherin on cells (human, UniProt P22223 108-829); assay: FACS on DU-145 cells
T1 construct: whole, on cells; Endogenous P-cadherin on tumour cell lines; also called hPro1
Procedure: (§1) Binding of the test antibodies to P-cadherin expressed on cells was determined by flow cytometry analysis. […] 1×10⁵ cells/well (100 μL) were added to each well of a 96-well U-plate (Corning, #3799) and centrifuged at 1500 rpm (Eppendorf, #5810R) for 5 minutes before removing the supernatant. Antibodies serially diluted in 1% BSA/1×PBS (Ca+/Mg+) were added at 100 μL/well to the pelleted cells and incubated at 4° C. for 1 hour. Anon-related hIgG1 antibody was used as an isotype control. Cells were washed two times with 180 μL/well of 1% BSA/1×PBS (Ca+/Mg+) by centrifugation at 1500 rpm for 5 minutes at 4° C. Pelleted cells were resuspended in 100 μL/well Alexa647 conjugated Goat anti-human IgG Fc (Jackson, #109-605-098) 1:500 diluted in 1% BSA/1×PBS (Ca+/Mg+) for 30 minutes at 4° C. in the dark. Cells were then washed two times as described above. After the final wash, cells were resuspended in 100 μL 1% BSA/1×PBS (Ca+/Mg+) and fluorescence values were measured with a FACS Canto II cytometer (BD Biosciences). The amount of cell surface bound anti-P-cadherin antibody was assessed by measuring the mean fluorescence (MFI). The FACS raw data were analyzed by FlowJo software, wells containing no antibody or secondary antibody only were used to establish background fluorescence. Binding EC50 values were obtained by the four-parameter non-linear regression analysis using GraphPad Prism6 software.

[2] = target: T1, Human P-cadherin on cells; assay: FACS on HCT-116 cells
Procedure: as §1
Binding of the antibodies to human P-cadherin expressed on cells was determined by flow cytometry analysis.

[3] = target: T1, Human P-cadherin on cells; assay: cell-based or functional assay
[4] = target: T1, Human P-cadherin on cells; assay: FACS on NCI-H1650 cells
Procedure: as §1

[5] = target: T1, Human P-cadherin on cells; assay: FACS affinity test on DU-145 cells
Procedure: Antibodies to be tested were serially diluted in 1×PBS/1% BSA and incubated with cells at 4° C. for 1 h. The plates were centrifuged and the supernatant was discarded. The cells were then incubated with Alexa647 conjugated goat anti-human IgG Fc (Jackson) at 4° C. in the dark for 30 min. After washing the cells were re-suspended in 100 μL 1×PBS/1% BSA, and fluorescence intensity was measured by flow cytometry (BD Canto II) and analyzed by FlowJo. The fluorescence intensity was converted to bound molecules/cell based on the quantitative beads standard curve (Quantum™ MESF Kits, Bangs Laboratories). KD was calculated by Graphpad Prism5.

[6] = target: T1, Human P-cadherin on cells; assay: FACS on HCT-116 cells, antibody kept in human serum at 37 C, Day 0
Procedure: (§2) The antibody stability in human serum was tested by FACS. Briefly, human serum was freshly isolated by centrifuging the fresh blood twice at 4000 rpm for 10 minutes. […] As a control, antibodies serum mix was frozen immediately without 37° C. incubation. For the FACS analysis, the samples from different time points were free-thawed simultaneously at 4° C. […] The cells were washed twice with 1% BSA/1×PBS (Ca+/Mg+). Alexa647 conjugated Goat anti-human IgG Fc (Jackson, #109-605-098) 1:500 diluted in 1% BSA/1×PBS (Ca+/Mg+) were added to the cells and incubated at 4° C. for 30 minutes. Cells were washed twice in the same buffer and the mean fluorescence (MFI) of stained cells was measured using a FACS Canto II cytometer (BD Biosciences) and analyzed by FlowJo. Wells containing no antibody or secondary antibody only were used to establish background fluorescence. Four-parameter non-linear regression analysis was used to obtain EC50 values for cell binding using GraphPad Prism6 software.

[7] = target: T1, Human P-cadherin on cells; assay: FACS on HCT-116 cells, antibody kept in human serum at 37 C, Day 1
Procedure: as §2

[8] = target: T1, Human P-cadherin on cells; assay: FACS on HCT-116 cells, antibody kept in human serum at 37 C, Day 4
Procedure: as §2

[9] = target: T1, Human P-cadherin on cells; assay: FACS on HCT-116 cells, antibody kept in human serum at 37 C, Day 7
Procedure: as §2

[10] = target: T1, Human P-cadherin on cells; assay: FACS on HCT-116 cells, antibody kept in human serum at 37 C, Day 14
Procedure: as §2

T1 sequence (P22223 108-829): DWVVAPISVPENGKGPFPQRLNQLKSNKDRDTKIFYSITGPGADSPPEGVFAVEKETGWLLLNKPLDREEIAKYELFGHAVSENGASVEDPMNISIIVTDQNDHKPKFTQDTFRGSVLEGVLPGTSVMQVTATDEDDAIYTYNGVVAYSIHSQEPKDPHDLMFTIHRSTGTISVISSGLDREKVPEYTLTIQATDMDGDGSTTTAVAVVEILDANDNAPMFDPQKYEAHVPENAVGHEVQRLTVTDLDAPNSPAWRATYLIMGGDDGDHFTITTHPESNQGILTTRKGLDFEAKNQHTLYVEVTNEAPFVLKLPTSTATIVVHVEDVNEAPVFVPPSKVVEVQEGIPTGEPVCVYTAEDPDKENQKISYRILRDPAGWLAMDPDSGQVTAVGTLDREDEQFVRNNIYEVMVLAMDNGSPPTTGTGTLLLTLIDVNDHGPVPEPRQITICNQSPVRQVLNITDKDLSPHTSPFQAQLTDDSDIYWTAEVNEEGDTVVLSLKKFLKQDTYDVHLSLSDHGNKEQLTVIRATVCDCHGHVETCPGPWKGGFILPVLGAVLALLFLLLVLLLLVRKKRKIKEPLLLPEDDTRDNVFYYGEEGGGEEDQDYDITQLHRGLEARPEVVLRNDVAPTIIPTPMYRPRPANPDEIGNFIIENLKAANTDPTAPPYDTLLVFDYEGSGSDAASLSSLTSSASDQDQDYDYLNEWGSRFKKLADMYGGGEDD

B1: W3195-1.53.1-p1-uIgG1L (antibody)
heavy: not shown
light: SYELTQPPSVSVSPGQTAQITCSGDKLGDKFASWYQQKSGQSPVVVIYQDNKRPSGFPERFSGSNSGNTATLTISGTQAMDEADYYCQAWDSSIVVFGGGTKLTVLGQPKAAPSVTLFPPSSEELQANKATLVCLISDFYPGAVTVAWKADSSPVKAGVETTTPSKQSNNKYAASSYLSLTPEQWKSHRSYSCQVTHEGSTVEKTVAPTECS
notes: also called W3195-p1 antibody
[1]
  EC50: 70 pM
  Max MFI: 2100
[2]
  EC50: 150 pM
  Max MFI: 4080
[3]
  internalization, Fab-ZAP on HCC-1954, IC50: 69 pM
  internalization, Fab-ZAP on HCC-1954, Max Inh %: 81%
[4]
  EC50: 220 pM
[5]
  Kd: 34 pM
[6]
  EC50: 200 pM
[7]
  EC50: 190 pM
[8]
  EC50: 160 pM
[9]
  EC50: 210 pM
[10]
  EC50: 200 pM

Source: US20240034786A1 (WUXI BIOLOGICS IRELAND, published 2024)
